Results published in IntAct's records for PubMed 19940246.

B1: DNA-directed RNA polymerase subunit beta (Bacillus subtilis), P37870 (parent)
chain: MTGQLVQYGRHRQRRSYARISEVLELPNLIEIQTSSYQWFLDEGLREMFQDISPIEDFTGNLSLEFIDYSLGEPKYPVEESKERDVTYSAPLRVKVRLINKETGEVKDQDVFMGDFPIMTDTGTFIINGAERVIVSQLVRSPSVYFSGKVDKNGKKGFTATVIPNRGAWLEYETDAKDVVYVRIDRTRKLPVTVLLRALGFGSDQEILDLIGENEYLRNTLDKDNTENSDKALLEIYERLRPGEPPTVENAKSLLDSRFFDPKRYDLANVGRYKINKKLHIKNRLFNQRLAETLVDPETGEILAEKGQILDRRTLDKVLPYLENGIGFRKLYPNGGVVEDEVTLQSIKIFAPTDQEGEQVINVIGNAYIEEEIKNITPADIISSISYFFNLLHGVGDTDDIDHLGNRRLRSVGELLQNQFRIGLSRMERVVRERMSIQDTNTITPQQLINIRPVIASIKEFFGSSQLSQFMDQTNPLAELTHKRRLSALGPGGLTRERAGMEVRDVHYSHYGRMCPIETPEGPNIGLINSLSSYAKVNRFGFIETPYRRVDPETGKVTGRIDYLTADEEDNYVVAQANARLDDEGAFIDDSIVARFRGENTVVSRNRVDYMDVSPKQVVSAATACIPFLENDDSNRALMGANMQRQAVPLMQPEAPFVGTGMEYVSGKDSGAAVICKHPGIVERVEAKNVWVRRYEEVDGQKVKGNLDKYSLLKFVRSNQGTCYNQRPIVSVGDEVVKGEILADGPSMELGELALGRNVMVGFMTWDGYNYEDAIIMSERLVKDDVYTSIHIEEYESEARDTKLGPEEITRDIPNVGEDALRNLDDRGIIRIGAEVKDGDLLVGKVTPKGVTELTAEERLLHAIFGEKAREVRDTSLRVPHGGGGIIHDVKVFNREDGDELPPGVNQLVRVYIVQKRKISEGDKMAGRHGNKGVISKILPEEDMPYLPDGTPIDIMLNPLGVPSRMNIGQVLELHMGMAARYLGIHIASPVFDGAREEDVWETLEEAGMSRDAKTVLYDGRTGEPFDNRVSVGIMYMIKLAHMVDDKLHARSTGPYSLVTQQPLGGKAQFGGQRFGEMEVWALEAYGAAYTLQEILTVKSDDVVGRVKTYEAIVKGDNVPEPGVPESFKVLIKELQSLGMDVKILSGDEEEIEMRDLEDEEDAKQADGLALSGDEEPEETASADVERDVVTKE
partner: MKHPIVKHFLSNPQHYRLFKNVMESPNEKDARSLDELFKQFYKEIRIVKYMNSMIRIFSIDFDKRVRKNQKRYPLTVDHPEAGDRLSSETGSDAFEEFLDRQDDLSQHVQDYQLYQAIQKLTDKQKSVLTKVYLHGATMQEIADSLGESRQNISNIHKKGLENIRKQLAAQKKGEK
B2: Sigma-O factor regulatory protein RsoA (Bacillus subtilis), C0H3R4 (parent)
chain: MDGQFEQKKKQKDETYDIEHLIACFSPMIRKKLSNTSYQEREDLEQELKIKMFEKADMLLCQDVPGFWEFILYMVDENS

Variants of: B1
Settings: with sigo_bacsu sigO

Row | Variant | effect of a mutation on the interaction
1 | F865K | decreasing interaction
2 | I864K | disrupting interaction

Variants of: B2
Settings: with rpoc_bacsu rpoC

Row | Variant | effect of a mutation on the interaction
3 | L44A | decreasing interaction strength
4 | L44E | decreasing interaction strength
5 | R41A | decreasing interaction
6 | D43A | decreasing interaction strength
7 | D43N | decreasing interaction strength
8 | Q46E | decreasing interaction strength
9 | Q46A | decreasing interaction strength
